Measured values: PMC4174979 (DNA repair, 2014)

B1: Sgs1_(103–322) (domain or fragment, S. cerevisiae, UniProt P35187 103-322, looked up)
chain: ADVPMVDIPASTSVVSNPRTPNGSKTHNFNTFRPHMASSLVENDSSRNLGSRNNNKSVIDNSSIGKQLENDIKLEVIRLQGSLIMALKEQSKLLLQKCSIIESTSLSEDAKRLQLSRDIRPQLSNMSIRIDSLEKEIIKAKKDGMSKDQSKGRSQVSSQDDNIISSILPSPLEYNTSSRNSNLTSTTATTVTKALAITGAKQNITNNTGKNSNNDSNNDD
B2: Sgs1_(157–257) (domain or fragment, S. cerevisiae, UniProt P35187 157-257, looked up)
chain: NKSVIDNSSIGKQLENDIKLEVIRLQGSLIMALKEQSKLLLQKCSIIESTSLSEDAKRLQLSRDIRPQLSNMSIRIDSLEKEIIKAKKDGMSKDQSKGRSQ
B3: BLM_(95–294) (domain or fragment, human, UniProt P54132 95-294, looked up)
chain: AGQETQRGGSKSLLPDFLQTPKEVVCTTQNTPTVKKSRDTALKKLEFSSSPDSLSTINDWDDMDDFDTSETSKSFVTPPQSHFVRVSTAQKSKKGKRNFFKAQLYTTNTVKTDLPPPSSESEQIDLTEEQKDDSEWLSSDVICIDDGPIAEVHINEDAQESDSLKTHLEDERDNSEKKKNLEEAELHSTEKVPCIEFDDD

Molecular target: the molecule itself
Assay: SEC

Protein | stoichiometry N
B1 | 6
B2 | 6
B3 | 6
